In patent US20180186877A1, “METHOD FOR SUPPRESSING BLOOD COAGULATION REACTION FOR WHICH LOX-1 IS RESPONSIBLE” (NATIONAL CEREBRAL AND CARDIOVASCULAR CENTER, priority 2013, published 2018):

Target: LOX-1 (immobilised on the ELISA plate in Examples 3 to 6; recombinant LOX-1 protein immobilised in the test tube in Example 8) (UniProt P78380)
Assay: ELISA, LOX-1 immobilised at 5 ug/mL, recombinant A2 domain 0-10 ug/mL, anti-V5 detection

Chain of Recombinant A2 domain of the H chain of FV (NM000130.4, aa 317-656, V5-6xHis; Igk secretion signal) (P12259 345-684 limits assumed, form in doubt): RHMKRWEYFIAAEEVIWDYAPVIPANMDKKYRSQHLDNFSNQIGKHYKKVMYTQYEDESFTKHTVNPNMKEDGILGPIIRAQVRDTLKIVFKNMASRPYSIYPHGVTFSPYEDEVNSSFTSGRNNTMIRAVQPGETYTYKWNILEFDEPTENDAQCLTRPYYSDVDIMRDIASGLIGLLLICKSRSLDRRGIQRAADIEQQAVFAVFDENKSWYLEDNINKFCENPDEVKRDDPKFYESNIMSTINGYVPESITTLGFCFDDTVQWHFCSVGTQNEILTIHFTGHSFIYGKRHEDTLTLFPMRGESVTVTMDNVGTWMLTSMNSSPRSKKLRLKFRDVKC

“Recombinant A2 domain of the H chain of FV (NM000130.4, aa 317-656, V5-6xHis; Igk secretion signal) (from UniProt P12259 345-684)” was tested, and the EC50 (read off the curve) was 1 µg/mL.
